Literature values in paper doi:10.1101/2025.04.17.649309.

Biological target: Cys12 (UniProt position 12, YTKETCPYCHR)

Glutaredoxin 3 (Grx3) (Escherichia coli)
pKa: 4.1
